Columns and labels:
Arabidopsis [1] = test: dgt-28, dgt-32, dgt-33, dgt-3, dgt-7 transformed Arabidopsis (T1, T2, T3) response to postemergence glyphosate, % visual injury; type: in vivo, Arabidopsis thaliana; conditions: 14 days after application
How it was run: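 Transgenic T1, T2 and T3 Arabidopsis (low-copy events for T2/T3, hemizygous and homozygous in T2) sprayed postemergence with glyphosate at 105, 420, 1,680 or 3,360 g ae/ha. Visual injury scored 2 weeks after treatment as mean, SD and range. Non-transformed Columbia served as sensitive control.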

Arabidopsis [2] = test: Heritability progeny test of T1 families (T2 plants) with glufosinate, Arabidopsis; type: in vivo, Arabidopsis thaliana; conditions: progeny test of 100 T2 plants, glufosinate 200 g ae/ha
How it was run: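 Self-pollinated T1 Arabidopsis events gave T2 seed; 100 random T2 siblings were sprayed with glufosinate at 200 g ae/ha and scored resistant/sensitive, segregation tested by Chi square against 3:1.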

[3] = Table 8, T1 Arabidopsis, 105 g ae/ha glyphosate
[4] = Table 8, T1 Arabidopsis, 420 g ae/ha glyphosate
[5] = Table 8, T1 Arabidopsis, 1680 g ae/ha glyphosate
[6] = Table 8, T1 Arabidopsis, 3360 g ae/ha glyphosate
[7] = Table 10, T1 Arabidopsis, 1,680 g ae/ha glyphosate
[8] = Table 12, T2 Arabidopsis, 1 copy, 420 g ae/ha glyphosate
[9] = Table 12, T2 Arabidopsis, 1 copy, 840 g ae/ha glyphosate
[10] = Table 12, T2 Arabidopsis, 1 copy, 1680 g ae/ha glyphosate
[11] = Table 12, T2 Arabidopsis, 1 copy, 3360 g ae/ha glyphosate

B1: pDAB105534: TraP13 v2 -- dgt-28 v5: binary construct TraP13 v2:dgt-28 v5 (SEQ ID NO:37) (nucleic acid)
DNA: ATGGCACAAGTTAGCAGAATCTGTAATGGTGTGCAGAACCCATCTCTTATCTCCAATCTCTCAAAGTCCAGCCAACGTAAGTCTCCCCTCAGCGTGTCTCTGAAAACTCAGCAGCCCAGAGCTTCTTCATGGGGTTTGAAGAAATCTGGAACGATGCTTAACGGCTCAGTCATTCGTCCGGTTAAGGTGACAGCCTCCGTCTCCGCTGCTAGAGGGATGCCAGCCTTGTCTTTACCTGGATCAAAGAGTATCACAGCTAGGGCACTCTTTCTTGCTGCTGCTGCTGATGGGGTTACTACTTTGGTGAGGCCATTGAGAAGTGACGACACAGAAGGATTCGCTGAGGGGTTAGTTCGTTTAGGCTATCGTGTAGGGAGGACACCCGATACTTGGCAAGTCGATGGCAGACCACAAGGACCAGCAGTGGCTGAGGCTGACGTCTACTGTAGAGACGGAGCAACCACCGCTAGATTCTTGCCAACCTTAGCAGCTGCTGGTCACGGAACATACAGATTTGATGCTTCACCACAGATGAGGAGACGTCCTCTTTTGCCCTTAAGCAGAGCCTTGAGGGATTTGGGTGTCGATCTTAGACACGAAGAAGCTGAAGGTCATCACCCTCTGACTGTCCGTGCTGCTGGGGTTGAAGGAGGAGAGGTTACTTTGGATGCTGGTCAGTCAAGTCAGTATCTCACTGCCTTGTTGCTCCTTGGTCCCCTTACAAGACAAGGACTGAGGATAAGGGTTACTGATTTGGTGTCAGCACCATACGTGGAGATTACGCTTGCAATGATGAGGGCTTTCGGAGTTGAAGTGGCAAGGGAGGGAGATGTGTTCGTTGTTCCACCTGGTGGATATCGTGCAACTACGTATGCTATAGAACCCGACGCAAGTACTGCTTCTTACTTCTTCGCAGCTGCTGCTTTGACTCCTGGAGCTGAAGTGACTGTACCTGGGTTAGGCACGGGAGCACTTCAAGGAGATTTGGGATTTGTAGATGTCTTAAGGAGAATGGGAGCCGAGGTGTCCGTAGGAGCTGATGCAACCACTGTTAGAGGAACTGGTGAATTGCGTGGCCTTACAGCCAACATGAGAGACATAAGTGATACGATGCCGACCCTCGCTGCAATAGCACCCTTTGCTAGTGCTCCAGTTAGAATCGAGGATGTTGCCAACACTCGTGTCAAAGAATGTGACAGACTTGAGGCTTGTGCAGAGAACCTTAGGAGGTTGGGAGTAAGGGTTGCAACGGGTCCGGACTGGATTGAGATACACCCTGGTCCAGCTACTGGTGCTCAAGTCACAAGCTATGGTGATCACAGAATTGTGATGTCATTTGCAGTGACTGGACTTCGTGTGCCTGGGATCAGCTTCGACGACCCTGGCTGTGTTCGTAAGACTTTTCCTGGGTTTCACGAGGCTTTCGCAGAATTGAGGCGTGGCATTGGGAGCTGA
modifications: In-frame fusion of dgt-28 v5 and TraP13 v2
Arabidopsis [1]; [3]
  % Injury Ave: 14.0%
  % Injury Range (%): 0-50%
  No. plants with 20-40% injury: 0
  No. plants with <20% injury: 4
  No. plants with >40% injury: 1
Arabidopsis [1]; [4]
  % Injury Ave: 17.6%
  % Injury Range (%): 0-50%
  No. plants with 20-40% injury: 1
  No. plants with <20% injury: 3
  No. plants with >40% injury: 1
Arabidopsis [1]; [5]
  % Injury Ave: 39.0%
  % Injury Range (%): 5-100%
  No. plants with 20-40% injury: 0
  No. plants with <20% injury: 3
  No. plants with >40% injury: 2
Arabidopsis [1]; [6]
  % Injury Ave: 31.2%
  % Injury Range (%): 18-70%
  No. plants with 20-40% injury: 2
  No. plants with <20% injury: 2
  No. plants with >40% injury: 1
Arabidopsis [1]; [7]
  % Injury Ave: 39.0%
  % Injury Range (%): 5-100%
  No. plants with 20-40% injury: 0
  No. plants with <20% injury: 3
  No. plants with >40% injury: 2
Arabidopsis [1]; [8]
  % Injury Ave: 5.0%
  % Injury Range (%): 0-20%
  No. plants with 20-40% injury: 1
  No. plants with <20% injury: 3
  No. plants with >40% injury: 0
Arabidopsis [1]; [9]
  % Injury Ave: 5.0%
  % Injury Range (%): 0-20%
  No. plants with 20-40% injury: 1
  No. plants with <20% injury: 3
  No. plants with >40% injury: 0
Arabidopsis [1]; [10]
  % Injury Ave: 10.0%
  % Injury Range (%): 0-20%
  No. plants with 20-40% injury: 2
  No. plants with <20% injury: 2
  No. plants with >40% injury: 0
Arabidopsis [1]; [11]
  % Injury Ave: 15.0%
  % Injury Range (%): 5-30%
  No. plants with 20-40% injury: 2
  No. plants with <20% injury: 2
  No. plants with >40% injury: 0
Arabidopsis [2]
  T1 Families Tested Segregating at 1 Locus (%): 75%
